Laboratory results: the DeepSol protein solubility set

Assay: soluble on expression in E. coli; label from the status in PepcDB or PDB records

Row | Sequence | soluble on expression in E. coli
1 | MILTITYTQPPATDLGYLLHKNPSRPQTFELNHGKAHIFYPEATSERCTVALLLDIDPIDLARGKKGSSGEGGLFDYVNDRPYVSSSFMSVAISRVFGTAMSGKCKEKPELAAIKLPLKAKIMMLPCKGGEEIIYRLFEPLGYKVDVEGYMLDEKFPEWGKSRYYTVSLEGEVRVRDLLNHIYVLIPVLDSEKHYWVGEDEIDKLFQHGEGWLVDHPEKELITGRYLIRKKRLVNQALKRLLEASDVVDDENEDDEPLKNEETEKKLNLNQQRLGTVVAVLKSVNAKKVIDLGCGEGNLLSLLLKDKSFEQITGVDVSYSVLERAKDRLKIDRLPEMQRKRISLFQSSLVYRDKRFSGYDAATVIEVIEHLDENRLQAFEKVLFEFTRPQTVIVSTPNKEYNFHYQNLFEGNLRHRDHRFEWTRKEFETWAVKVAEKYGYSVRFLQIGEIDDEFGSPTQMGVFTL | not soluble
2 | MINARGETMARFTVVIPYYQKQHGVLGRALASVFAQTYQDFDLVIVDDESPYPIDQELAEISQEQKDRIVVIKQANAGPGGARNTGLDHVPDGTDYVAFLDSDDMWTPDHLRNAAFALNTYGGECYWASMQASDEFYYHFAISELEKNEGAARLSEKPLVIELPDLASVMLRNWSFLHLSCMVIGRPLFEKIRFDPALRLAAEDVLFFCDSILASKRTLLCDDAGAMRGMGVNIFHSIDNTSPEFLRQQFNTWVALDTLEGRFSRRPADVASIASYKNTARKQALWSQAGNLKRRRAPQFGLLFKWAMRDPALLRAAFELGAGKIVRSRLEHHHHHH | not soluble
3 | MINIAVDNSIKITIETTVNAPIDMVWEAWTEPEHIKSWNHASDDWHTTEAKNDLRVGGRFVSKMEAKDGSFGFDFGGTYNKVRLYEFISYIMDDDRSVEITFKPEKDKTYIVESFEAEKSNPIDLQQKGWQAILDNFKKYVEENKLRGREKLEHHHHHH | soluble
4 | MINITSMRDSFGDWAEKFLKSKEADGVSVSQLNSYKNYCRNHLSPLYMKSLSEILPADIQSIINETKLAKNTLKAIRNTASQIFRLAIENRAIDFNPADYVRIPKIAPEFHRDALEHHHHHH | soluble
5 | MINLTSIASSLARVALSDSTKPTIDRALNVVSHIAGKVALQVNSSLLEQKGRLNERQQKGLAVILDALRGKEPVTNVETHEGGGRFNLARAAFDVASVVWERDKSMHNVMSFLGVSDSQGKMLFSLGKKLADAMAKPEPGYGKHNSEANYAFFSSNLKLNKLMSDIADQLINEIRQSNTDRVRRPTPGPSWRPESAQQQARPQTPPRTRPQANSTPPPPKAKPNAGAKRPSTQRPHNTPAADASSKVGDSGPAKPPVKPLYEHLGLSDMTADLSAVKTAYKKAALKNHPDKNAGNVAEATERFKVISNAFKILSDPELRKKYDNGLINEKGDEVQV | not soluble
6 | MINRKIGFIGAGKMGSALMQGIIKAGIVQPENIGASDVYEPFLKELQTKLGIRVSTDNTVIVRESDILILAVKPQTLGSVLENLKNEITSEKLVISIAAGVPLSTYEGALLEGTRVVRVMPNIAATVSEAASGISPGKNATPEDMKDALTIFSAVGTAVQVPESLMDAVTGLSGSGPAFIFPVIEAMADGAVLEGMDRKSALTLAAQTVLGAAKMALETGMHPGELKDMVTSPAGTTIQGVHALEEAGIRAAFMNAVIRASERSRELGKKAAALEHHHHHH | soluble
7 | MINSSMQFDRILASQPGISLIAEKRITRSASYFPDHFPKRPVLPMTVLLECKLNLAKEFIARAKYDRAYRISELRKIKMNEFVHPGDVVVCQVKVKQQMDDELILSYRCEVDGKRVCVVDIVLIPKGKLEHHHHHH | not soluble
8 | MIPDDEFIKNPSVPGPTAMEVRCLIMCLAEPGKNDVAVDVGCGTGGVTLELAGRVRRVYAIDRNPEAISTTEMNLQRHGLGDNVTLMEGDAPEALCKIPDIDIAVVGGSGGELQEILRIIKDKLKPGGRIIVTAILLETKFEAMECLRDLGFDVNITELNIARGRALDRGTMMVSRNPVALIYTGVSHENKD | soluble
9 | MIPIERHQKILALVAERGVVSIAELTERLGVSHMTIRRDVQKLEEQGAVLSVSGGVRSTQRLAIEPSHQDKTMMFSRQKQAIGTSAALHIPRNSCIYLDAGTTTLALARQLEDRDDLLVVTNDFVIANFLIESSQCRMIHSGGTLCRKNRSCIGEAAAHSLRNLSIDIAFISASCWGLRGISTPDEDKVPVKRAISEASSKRVLLADASKYGKVATYLALPLTAFDVVITDNSLSSTVYEELAEKALELIIASPPR | not soluble
10 | MIPNFRGFNKKTKKMYSIDGFKSSERKIYRCSLADDEFRSGRLETFHFVEDNLVEKCNRPPERFYRQKQVRKSDRRLMARQ | not soluble
11 | MIPPSSPREDGVDGLPKEAVGAEQPPSPASTSSQESKLQKLKRSLSFKTKSLRSKSADNFFQRTNSEDMKLQAHMVAEISPSSSPLPAPGSLTSTPARAGLHPGGKAHAFHEYIFKKPTFCDVCNHMIVGTNAKHGLRCKACKMSIHHKCTDGLAPQRCMGKLPKGFRRYYSSPLLIHEQFGCIKEVMPIACGNKVDPVYETLRFGTSLAQRTKKGSSGSGSDSPHRTSTSDLVEVPEEANGPGGGYDLRKRSNSVFTYPENGTDDFRDPAKNINHQGSLSKDPLQMNTYVALYKFVPQENEDLEMRPGDIITLLEDSNEDWWKGKIQDRIGFFPANFVQRLQQNEKIFRCVRTFIGCKEQGQITLKENQICVSSEEEQDGFIRVLSGKKKGLIPLDVLENI | soluble
12 | MIPTTATVDDEPGQIKRALIDASAGAISGGVSRSVTSPLDVIKIRFQVQLEPTTSWGLVRGNLSGASKYTGMVQATKDIFREEGFRGFWRGNVPALLMVMPYTSIQFTVLHKLKSFASGSTKTEDHIHLSPYLSFVSGALAGCAATLGSYPFDLLRTILASQGEPKVYPTMRSAFVDIIQSRGIRGLYNGLTPTLVEIVPYAGLQFGTYDMFKRWMMDWNRYKLSSKIPINVDTNLSSFQLFICGLGAGTSAKLVCHPLDVVKKRFQIEGLQRHPRYGARVERRAYRNMLDGLRQIMISEGWHGLYKGIVPSTVKAAPAGAVTFVAYEFTSDWLESISW | soluble
13 | MIPVVYSNLCPVCGGDLESKEIEKHVCFRKKRSLCLFPEDFLLKEFVEFFRKCVGEPRAIQKMWAKRILRKESFAATAPTGVGKTSFGLAMSLFLALKGKRCYVIFPTSLLVIQAAETIRKYAEKAGVGTENLIGYYHGRIPKREKENFMQNLRNFKIVITTTQFLSKHYRELGHFDFIFVDDVDAILKASKNVDKLLHLLGFHYDLKTKSWVGEARGCLMVSTATAKKGKKAELFRQLLNFDIGSSRITVRNVEDVAVNDESISTLSSILEKLGTGGIIYARTGEEAEEIYESLKNKFRIGIVTATKKGDYEKFVEGEIDHLIGTAHYYGTLVRGLDLPERIRFAVFVGCPSFRVTIEDIDSLSPQMVKLLAYLYRNVDEIERLLPAVERHIDEVREILKKVMGKERPQAKDVVVREGEVIFPDLRTYIQGSGRTSRLFAGGLTKGASFLLEDDSELLSAFIERAKLYDIEFKSIDEVDFEKLSRELDESRDRYRRRQEFDLIKPALFIVESPTKARQISRFFGKPSVKVLDGAVVYEIPMQKYVLMVTASIGHVVDLITNRGFHGVLVNGRFVPVYASIKRCRDCGYQFTEDRESCPKCGSENVDNSRSRIEALRKLAHDAEFVIVGTDPDTEGEKIAWDLKNLLSGCGAVKRAEFHEVTRRAILEALESLRDVDENLVKAQVVRRIEDRWIGFVLSQKLWERFNNRNLSAGRAQTLVLGWIIDRFQESRERRKIAIVRDFDLVLEHDEEEFDLTIKLVEEREELRTPLPPYTTETMLSDANRILKFSVKQTMQIAQELFENGLITYHRTDSTRVSDVGQRIAKEYLGDDFVGREWGESGAHECIRPTRPLTRDDVQRLIQEGVLVVEGLRWEHFALYDLIFRRFMASQCRPFKVVVKKYSIEFDGKTAEEERIVRAEGRAYELYRAVWVKNELPTGTFRVKAEVKSVPKVLPFTQSEIIQMMKERGIGRPSTYATIVDRLFMRNYVVEKYGRMIPTKLGIDVFRFLVRRYAKFVSEDRTRDLESRMDAIERGELDYLKALEDMYAEIKSID | soluble
14 | MIQDETLEREVADLVISTLNLDVSPESVDPEAPLYREGLGLDSIDILEIALVVSKRYGFQLRADNEDNVLEHHHHHH | not soluble
15 | MIREKALEFHKNNFPGNGKIEVIPKVSLESREELTLAYTPGVAEPCKEIARDPGKVYEYTSKGNLVAVVSDGSRILGLGNIGPLAGLPVMEGKALLFKRFGGVDAFPIMIKEQEPNKFIDIVKAIAPTFGGINLEDIASPKCFYILERLREELDIPVFHDDQQGTAAVVLAGLLNALKVVGKKISEITLALFGAGAAGFATLRILTEAGVKPENVRVVELVNGKPRILTSDLDLEKLFPYRGWLLKKTNGENIEGGPQEALKDADVLISFTRPGPGVIKPQWIEKMNEDAIVFPLANPVPEILPEEAKKAGARIVATGRSDYPNQINNLLGFPGIFRGALDVRARTITDSMIIAAAKAIASIVEEPSEENIIPSPLNPIVYAREARAVAEEAMKEGVARTKVKGEWVEEHTIRLIEFYENVIAPINKKRREYSKAITRA | soluble
16 | MIRILLSNDDGISAPGIQTLASALRGFAQVQIVAPDRNRSGASNALTLDSALRITTLSNGDIAVQQGTPTDCVYLGVNALMRPRPDIVVSGINAGPNLGDDVIYSGTVAAAMEGRHLGYPALAVSLNGHQHYDTAAAVTCRLLRALQRKPLRTGKILNINVPDLPLAEIKGIRVTRCGSRHPAEQVFCQQDPRGQDLYWIGPPGEKYDAGPDTDFAAVEQGYVSITPLQVDLTAYMAQEVVESWLANTEVDGEW | not soluble
17 | MIRLTNIKLPLDHQEHELEQAILTKLSIKAVQLIKFTVFKRGYDARKKNSIFLIYTLDVETNVDEALLATFIADTQVKETPDMAYKFVSQAPKNLKNRPVVIGMGPCGLFVGLVLAQMGFNPIVLERGQEVRQRTKDTFGFWRKKILNTESNVQFGEGGAGTFSDGKLYSQVKDPKHYSRKVLHEFVAAGAPEEILYVSKPHIGTFKLVTMVEKMRAKIFELGGEVRFNQRVDKIHFTDVEGNECTAQGIEGYQNKKVTGLTLSNGDHIETNYIALAIGHSARDTFSMLFDEDVYMKAKPFSVGFRIEHEQAVIDEARFGNNAGNEILGSADYKLVHHCSNGRSVYSFCMCPGGTVVAAASEEGRLVTNGMSQYSRLERNANSAIVVGIEPEDFITSEFASDRDYVLAGMEFQRNLEAKAFKLGGESYDAPVQLVGDFLAGRKSGEHGSVAPSYKPGVTYCDLSETLPDYAIAAIREALPAFDKKIKGFSMAEATLTAVETRTSSPIQITRDKETLQSLNAQGLYPAGEGAGYAGGILSAGIDGIKIAEAMALAITAEQEHLEHHHHHH | not soluble
18 | MIRVCNQIGIPYYAVNFEKQYYEKVFQYFLDEYKAGRTPNPDVLCNKEIKFKAFLEHALSLGADYLATGHYARVDRSGGKVRMLRGIDENKDQTYFLNQLTEDTLSKVMFPIGELQKSRVREIAKEAELATATKKDSTGICFIGERNFKTFLSQYLPAQPGDMMTMDGEVKGRHDGLMYYTIGQRHGLGIGGSGEPWFAVGKDLEKNILYVDQGFHNPLLYSDKITATNISWVRSDIMKGEEISCTAKFRYRQEDHKVTVRMTGEGEAEVIFDEQVRAVTPGQAVVFYDGEECLGGGTIDDVYKDGTKLWYV | not soluble
19 | MIRVIFLDLDKTLLPEYDPEPAIPIVEELKKKGFEIVFNSSKTRAEQEYYREKLNVKGPFIVENGSAIYIPSNYFPFEVPGVKRGEYMVLELGVKVEEIRKALKELEAEYGLKYYGNSTDEEIEKFTKLPKHLIPLAKDREYSETIFLWKREGWEKDLIRKGFKVTMGSRFYAVHGNSDKGKAAKLLLDLYKRVDEVESYAVGDGENDFPMFDVVDFAFLIGDLRHENAENVTSIKDVLKKIAAALEHHHHHH | soluble
